Data published in US20160058827A1.

Target: MUC1 C-terminal subunit (MUC1-C) (human) (UniProt P15941)
Test: cell-based or functional assay

Chain of MUC1 C-terminal subunit (MUC1-C) (human) (P15941 1097-1255): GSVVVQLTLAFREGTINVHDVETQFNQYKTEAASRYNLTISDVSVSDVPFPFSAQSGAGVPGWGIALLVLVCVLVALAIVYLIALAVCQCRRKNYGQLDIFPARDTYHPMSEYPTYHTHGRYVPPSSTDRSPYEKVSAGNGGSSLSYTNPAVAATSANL

Substance GO-203 (peptide) has a half-maximal inhibitory concentration for GO-203 (BT-474/CshRNA cell growth) of 3.9 µM.
